Experimental data reported in paper doi:10.1101/2020.05.19.103432.

Columns and labels:
[1] = molecular target: GltPh, fully functional seven-histidine mutant, referred to as wildtype (WT) (UniProt O59010); experiment: cryo-EM structure
[2] = molecular target: GltPh K55C/C321A/A364C mutant, cross-linked with HgCl2 (GltPh^IFS) (UniProt O59010); experiment: cryo-EM structure

stoichiometry N [1]	stoichiometry N [2]	Substance
3		GltPh, fully functional seven-histidine mutant, referred to as wildtype (WT) (from UniProt O59010 1-417) (natural protein)
	3	GltPh K55C/C321A/A364C mutant, cross-linked with HgCl2 (GltPh^IFS) (from UniProt O59010 1-425) (natural protein)
